# Target: T1, integrin ανβ3 on K562 integrin ανβ3-overexpressing cells (UniProt P06756 31-1048; P05106 27-788)
# T1 construct: whole, on cells; Heterodimer overexpressed on K562 cells; Parental K562 cells served as the comparison; also called K562 integrin ανβ3 cells
# Test: FACS on K562 integrin ανβ3-overexpressing cells, 100 nM antibody with 300 IU/ml heparin
# Procedure: Specifically, each of a K562 cell line and a K562 integrin ανβ3-overexpressing cell line was added to 1.5 ml at a density of 2×10⁵ cells, then washed twice with washing buffer (pH 7.4 PBS, 2% FBS). […] The cells were washed twice with washing buffer, and then stained with an Alexa488 (green fluorescence)-labeled antibody (Invitrogen) that specifically recognizes human IgG, at 4° for 1 hour. Next, the cells were washed twice with washing buffer, and analyzed by FACS.
binder,measurement,value
"RGD10 peptide-fused anti-Ras•GTP iMab RT11 (antibody, V domains shown, also called RGD10-RT11; RGD10 peptide-fused RT11) VH: EVQLVESGGGLVQPGGSLRLSCAASGFTFSSYSMSWVRQAPGKGLEWVSYISRTSHTTYYADSVKGRFTISRDNSKNTLYLQMNSLRAEDTAVYYCARGFFMDYWGQGTLVTVSS VL: DLVMTQSPSSLSASVGDRVTITCKSSQSLFNSRTRKNYLAWYQQKPGKAPKLLIYWASTRESGVPSRFSGSGSGTDFTLTISSLQPEDFATYYCQQYYYHMYTFGQGTKVEIKR",binding result,binds
